Source: doi:10.64898/2025.12.18.695077v1

Test system: O=P(O)(OC[C@@H](O)CO)OC[C@@H](O)CO
Test: purified protein
Conditions: co-substrate C22:6-CoA 100 uM, pH 7.4, 37 C, 0.05% LMNG

In the case of “CLN8 (FLAG-STREP-tagged, purified from human Flp-In T-REx 293 cells) (Homo sapiens)”, the Km is reported as 570 µM and the kcat is reported as 0.8022 s⁻¹.
